Source: patent publication US20110263827A1 (AbbVie / Abbott, published 2011)

What was measured:
DLL-4 = molecular target: T1, DLL-4 (UniProt Q9NR61 27-524, limits assumed, biotinylated); experiment: direct bind ELISA, C-term VD;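 note: ELISA with antibody or DVD-Ig preparations applied to target antigen-coated plates for 1 h at room temperature, TMB colour development, absorbance read at 450 nm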
T1 construct: ELISA antigen

EGFR = molecular target: T2, EGFR (UniProt P00533 25-645, limits assumed, biotinylated); experiment: direct bind ELISA, N-term VD;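 note: antibody or DVD-Ig preparations bound to immobilized target antigen on ELISA plates, 1 h at room temperature, TMB detection read as absorbance at 450 nm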
T2 construct: ELISA antigen; construct not described

| EC50 (DLL-4) | EC50 (EGFR) | Binder |
| --- | --- | --- |
| 0.42 nM | 4.19 nM | DVD781 (bispecific antibody, DVD-Ig; HC L, LC L; variable parts only) VH: QVQLQESGPGLVKPSQTLSLTCTVSGYSISSDFAWNWIRQPPGKGLEWMGYISYSGNTRYQPSLKSRITISRDTSKNQFFLKLNSVTAADTATYYCVTAGRGFPYWGQGTLVTVSSASTKGPSVFPLAPEVQLVESGGGLVQPGGSLRLSCAASGFTFTDNWISWVRQAPGKGLEWVGYISPNSGFTYYADSVKGRFTISADTSKNTAYLQMNSLRAEDTAVYYCARDNFGGYFDYWGQGTLVTVSS VL: DIQMTQSPSSMSVSVGDRVTITCHSSQDINSNIGWLQQKPGKSFKGLIYHGTNLDDGVPSRFSGSGSGTDYTLTISSLQPEDFATYYCVQYAQFPWTFGGGTKLEIKRTVAAPSVFIFPPDIQMTQSPSSLSASVGDRVTITCRASQDVSTAVAWYQQKPGKAPKLLIYSASFLYSGVPSRFSGSGSGTDFTLTISSLQPEDFATTYYCQQSYTGTVTFGQGTKVEIKR |
| 0.99 nM | 3.45 nM | DVD811 (bispecific antibody, DVD-Ig; HC L, LC S; variable parts only) VH: QVQLQESGPGLVKPSQTLSLTCTVSGYSISSDFAWNWIRQPPGKGLEWMGYISYSGNTRYQPSLKSRITISRDTSKNQFFLKLNSVTAADTATYYCVTAGRGFPYWGQGTLVTVSSASTKGPSVFPLAPEVQLVESGGGLVQPGGSLRLSCAASGFTFTDNWISWVRQAPGKGLEWVGYISPNSGFTYYADSVKGRFTISADTSKNTAYLQMNSLRAEDTAVYYCARDNFGGYFDYWGQGTLVTVSS VL: DIQMTQSPSSMSVSVGDRVTITCHSSQDINSNIGWLQQKPGKSFKGLIYHGTNLDDGVPSRFSGSGSGTDYTLTISSLQPEDFATYYCVQYAQFPWTFGGGTKLEIKRTVAAPDIQMTQSPSSLSASVGDRVTITCRASQDVSTAVAWYQQKPGKAPKLLIYSASFLYSGVPSRFSGSGSGTDFTLTISSLQPEDFATTYYCQQSYTGTVTFGQGTKVEIKR |
| 0.55 nM | 4.06 nM | DVD841 (bispecific antibody, DVD-Ig; HC S, LC L; variable parts only) VH: QVQLQESGPGLVKPSQTLSLTCTVSGYSISSDFAWNWIRQPPGKGLEWMGYISYSGNTRYQPSLKSRITISRDTSKNQFFLKLNSVTAADTATYYCVTAGRGFPYWGQGTLVTVSSASTKGPEVQLVESGGGLVQPGGSLRLSCAASGFTFTDNWISWVRQAPGKGLEWVGYISPNSGFTYYADSVKGRFTISADTSKNTAYLQMNSLRAEDTAVYYCARDNFGGYFDYWGQGTLVTVSS VL: DIQMTQSPSSMSVSVGDRVTITCHSSQDINSNIGWLQQKPGKSFKGLIYHGTNLDDGVPSRFSGSGSGTDYTLTISSLQPEDFATYYCVQYAQFPWTFGGGTKLEIKRTVAAPSVFIFPPDIQMTQSPSSLSASVGDRVTITCRASQDVSTAVAWYQQKPGKAPKLLIYSASFLYSGVPSRFSGSGSGTDFTLTISSLQPEDFATTYYCQQSYTGTVTFGQGTKVEIKR |
| 4.01 nM | 5.1 nM | DVD339 (bispecific antibody, DVD-Ig; HC S, LC S; variable parts only) VH: QVQLQESGPGLVKPSQTLSLTCTVSGYSISSDFAWNWIRQPPGKGLEWMGYISYSGNTRYQPSLKSRITISRDTSKNQFFLKLNSVTAADTATYYCVTAGRGFPYWGQGTLVTVSSASTKGPEVQLVESGGGLVQPGGSLRLSCAASGFTFTDNWISWVRQAPGKGLEWVGYISPNSGFTYYADSVKGRFTISADTSKNTAYLQMNSLRAEDTAVYYCARDNFGGYFDYWGQGTLVTVSS VL: DIQMTQSPSSMSVSVGDRVTITCHSSQDINSNIGWLQQKPGKSFKGLIYHGTNLDDGVPSRFSGSGSGTDYTLTISSLQPEDFATYYCVQYAQFPWTFGGGTKLEIKRTVAAPDIQMTQSPSSLSASVGDRVTITCRASQDVSTAVAWYQQKPGKAPKLLIYSASFLYSGVPSRFSGSGSGTDFTLTISSLQPEDFATTYYCQQSYTGTVTFGQGTKVEIKR |
